According to the supplement of paper PMC9112550, “Optimization of the antimicrobial peptide Bac7 by deep mutational scanning” (BMC Biology, 2022):

test system: Escherichia coli TOP10; assay: shrunken log2 fold change of peptide-encoding DNA abundance (4.5 h post-induction vs induction); higher = less antimicrobial activity (less host growth inhibition); conditions: time post-induction: 4.5 h; library: site-saturation at positions 5, 18, 19, 20
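Further: peptides expressed intracellularly from a pBAD plasmid library in pooled LB shake-flask culture, induced with 0.3% L-arabinose, DNA abundance read by NGS, three biological replicates, DESeq2 with apeglm shrinkage.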

Row | Sequence | shrunken log2 fold change
1 | RRIRDRPPRLPRPRPRPEYLPRP | 0.0986
2 | RRIRDRPPRLPRPRPRPDREPRP | -0.0481
3 | RRIRWRPPRLPRPRPRPNWQPRP | -0.0101
4 | RRIRPRPPRLPRPRPRPSQYPRP | -0.415
5 | RRIRFRPPRLPRPRPRPERHPRP | -0.00647
6 | RRIRNRPPRLPRPRPRPLAKPRP | 0.249
7 | RRIRTRPPRLPRPRPRPEDCPRP | 0.0288
8 | RRIRGRPPRLPRPRPRPKCFPRP | 0.852
9 | RRIRKRPPRLPRPRPRPIWDPRP | -0.0152
10 | RRIRNRPPRLPRPRPRPKQTPRP | 0.317
11 | RRIRFRPPRLPRPRPRPDEPPRP | 0.248
12 | RRIRARPPRLPRPRPRPLRVPRP | 3.15
13 | RRIRTRPPRLPRPRPRPRFVPRP | -0.279
14 | RRIRWRPPRLPRPRPRPTKHPRP | -0.118
15 | RRIRDRPPRLPRPRPRPLHGPRP | 0.01
16 | RRIRKRPPRLPRPRPRPPSEPRP | 0.413
17 | RRIRPRPPRLPRPRPRPFQTPRP | -0.242
18 | RRIRVRPPRLPRPRPRPYIDPRP | -0.372
19 | RRIRTRPPRLPRPRPRPRFTPRP | 0.0679
20 | RRIRSRPPRLPRPRPRPNGFPRP | -0.0748
21 | RRIRSRPPRLPRPRPRPHTQPRP | -0.433
22 | RRIRARPPRLPRPRPRPYHNPRP | -1.16
23 | RRIRMRPPRLPRPRPRPQKNPRP | 0.628
24 | RRIRMRPPRLPRPRPRPPYIPRP | -0.0556
25 | RRIRDRPPRLPRPRPRPCKSPRP | -0.321

Row | Sequence | shrunken log2 fold change
26 | RRIRLRPPRLPRPRPRPPMKPRP | -0.144
27 | RRIRFRPPRLPRPRPRPWHYPRP | -0.146
28 | RRIRKRPPRLPRPRPRPNIKPRP | -0.284
29 | RRIRCRPPRLPRPRPRPVTYPRP | 0.0559
30 | RRIRVRPPRLPRPRPRPWVYPRP | -0.137
31 | RRIRSRPPRLPRPRPRPPGEPRP | 0.756
32 | RRIRSRPPRLPRPRPRPAGYPRP | 0.0337
33 | RRIRYRPPRLPRPRPRPDKCPRP | -0.107
34 | RRIRERPPRLPRPRPRPMLQPRP | -0.161
35 | RRIRQRPPRLPRPRPRPLFCPRP | 0.213
36 | RRIRRRPPRLPRPRPRPIQFPRP | 0.153
37 | RRIRIRPPRLPRPRPRPNHCPRP | -0.937
38 | RRIRERPPRLPRPRPRPNTFPRP | -0.388
39 | RRIRQRPPRLPRPRPRPQSWPRP | 0.0219
40 | RRIRLRPPRLPRPRPRPYDLPRP | -0.0724
41 | RRIRRRPPRLPRPRPRPISCPRP | 0.00341
42 | RRIRRRPPRLPRPRPRPQMIPRP | -0.0521
43 | RRIRCRPPRLPRPRPRPHEWPRP | 0.00702
44 | RRIRARPPRLPRPRPRPSMVPRP | -0.263
45 | RRIRDRPPRLPRPRPRPGQLPRP | -0.284
46 | RRIRKRPPRLPRPRPRPCMHPRP | -0.0309
47 | RRIRARPPRLPRPRPRPYNNPRP | -0.817
48 | RRIRLRPPRLPRPRPRPFTEPRP | -0.163
49 | RRIRYRPPRLPRPRPRPQFAPRP | 0.0437
50 | RRIRRRPPRLPRPRPRPCPVPRP | -0.256

Row | Sequence | shrunken log2 fold change
51 | RRIRARPPRLPRPRPRPPEVPRP | 1.17
52 | RRIRYRPPRLPRPRPRPEQGPRP | -0.00197
53 | RRIRIRPPRLPRPRPRPQRVPRP | -0.406
54 | RRIRWRPPRLPRPRPRPKSFPRP | 0.0955
55 | RRIRWRPPRLPRPRPRPNIFPRP | 0.0551
56 | RRIRKRPPRLPRPRPRPKNNPRP | -0.047
57 | RRIRARPPRLPRPRPRPPRCPRP | 0.931
58 | RRIRLRPPRLPRPRPRPQPTPRP | 0.0811
59 | RRIRVRPPRLPRPRPRPVCSPRP | -0.11
60 | RRIRKRPPRLPRPRPRPAKIPRP | -0.266
61 | RRIRGRPPRLPRPRPRPHPPPRP | 0.759
62 | RRIRARPPRLPRPRPRPSLDPRP | 0.735
63 | RRIRERPPRLPRPRPRPQIAPRP | 0.0377
64 | RRIRSRPPRLPRPRPRPHELPRP | -0.101
65 | RRIRGRPPRLPRPRPRPMIYPRP | 0.0378
66 | RRIRHRPPRLPRPRPRPDLRPRP | 0.0039
67 | RRIRMRPPRLPRPRPRPWPLPRP | 0.0935
68 | RRIRIRPPRLPRPRPRPTMVPRP | -0.719
69 | RRIRGRPPRLPRPRPRPQGEPRP | 0.327
70 | RRIRRRPPRLPRPRPRPKITPRP | -0.226
71 | RRIRRRPPRLPRPRPRPYMQPRP | -0.264
72 | RRIRMRPPRLPRPRPRPCIYPRP | 0.0933
73 | RRIRTRPPRLPRPRPRPPLAPRP | 0.65
74 | RRIRIRPPRLPRPRPRPEPEPRP | 0.421
75 | RRIRMRPPRLPRPRPRPRQSPRP | 0.982

Row | Sequence | shrunken log2 fold change
76 | RRIRGRPPRLPRPRPRPKKGPRP | 0.765
77 | RRIRDRPPRLPRPRPRPQVNPRP | -0.182
78 | RRIRCRPPRLPRPRPRPLGFPRP | -0.116
79 | RRIRERPPRLPRPRPRPSMTPRP | 0.0627
80 | RRIRHRPPRLPRPRPRPKAWPRP | -0.00151
81 | RRIRNRPPRLPRPRPRPKTWPRP | 0.0949
82 | RRIRYRPPRLPRPRPRPAEGPRP | -0.169
83 | RRIRIRPPRLPRPRPRPAVNPRP | 0.131
84 | RRIRGRPPRLPRPRPRPKMLPRP | 0.509
85 | RRIRDRPPRLPRPRPRPYPLPRP | 0.215
86 | RRIRWRPPRLPRPRPRPAGTPRP | 0.349
87 | RRIRDRPPRLPRPRPRPLRDPRP | 0.537
88 | RRIRLRPPRLPRPRPRPVTSPRP | -0.0743
89 | RRIRCRPPRLPRPRPRPYRNPRP | 0.0132
90 | RRIRVRPPRLPRPRPRPEWNPRP | -0.272
91 | RRIRVRPPRLPRPRPRPTHCPRP | 0.233
92 | RRIRWRPPRLPRPRPRPNSKPRP | -0.218
93 | RRIRIRPPRLPRPRPRPFALPRP | -0.178
94 | RRIRDRPPRLPRPRPRPFNHPRP | -0.368
95 | RRIRQRPPRLPRPRPRPCGRPRP | 0.411
96 | RRIRVRPPRLPRPRPRPYFCPRP | -0.483
97 | RRIRNRPPRLPRPRPRPFVEPRP | -0.12
98 | RRIRERPPRLPRPRPRPITQPRP | 0.0291
99 | RRIRVRPPRLPRPRPRPWAIPRP | -0.0122
100 | RRIRQRPPRLPRPRPRPYYFPRP | -0.661

Row | Sequence | shrunken log2 fold change
101 | RRIRARPPRLPRPRPRPNHNPRP | -0.542
102 | RRIRVRPPRLPRPRPRPFISPRP | -0.11
103 | RRIRWRPPRLPRPRPRPEMHPRP | 0.952
104 | RRIRKRPPRLPRPRPRPDKVPRP | 0.116
105 | RRIRLRPPRLPRPRPRPDQGPRP | -0.034
106 | RRIRLRPPRLPRPRPRPKGMPRP | -0.0948
107 | RRIRIRPPRLPRPRPRPFGRPRP | -0.0138
108 | RRIRGRPPRLPRPRPRPCSNPRP | 0.275
109 | RRIRIRPPRLPRPRPRPCFCPRP | -0.422
110 | RRIRHRPPRLPRPRPRPMPCPRP | -0.105
111 | RRIRPRPPRLPRPRPRPFMKPRP | -0.915
112 | RRIRSRPPRLPRPRPRPYSYPRP | -0.393
113 | RRIRVRPPRLPRPRPRPHWLPRP | -0.291
114 | RRIRIRPPRLPRPRPRPYVNPRP | -0.0125
115 | RRIRTRPPRLPRPRPRPIGLPRP | -0.115
116 | RRIRCRPPRLPRPRPRPICKPRP | 0.0601
117 | RRIRPRPPRLPRPRPRPHMIPRP | -0.98
118 | RRIRERPPRLPRPRPRPHKNPRP | -0.206
119 | RRIRLRPPRLPRPRPRPSEHPRP | -0.453
120 | RRIRSRPPRLPRPRPRPFFQPRP | -0.105
121 | RRIRIRPPRLPRPRPRPRQMPRP | 0.0961
122 | RRIRQRPPRLPRPRPRPFQKPRP | -0.173
123 | RRIRHRPPRLPRPRPRPPVCPRP | -0.0372
124 | RRIRDRPPRLPRPRPRPMTFPRP | -0.0951
125 | RRIRDRPPRLPRPRPRPFWAPRP | 0.141

Row | Sequence | shrunken log2 fold change
126 | RRIRMRPPRLPRPRPRPYPDPRP | -0.0456
127 | RRIRYRPPRLPRPRPRPSDCPRP | -0.0875
128 | RRIRGRPPRLPRPRPRPAHCPRP | 1.06
129 | RRIRQRPPRLPRPRPRPSREPRP | 0.111
130 | RRIRIRPPRLPRPRPRPHCIPRP | -2.92
131 | RRIRNRPPRLPRPRPRPIRYPRP | -0.746
132 | RRIRGRPPRLPRPRPRPVADPRP | 1.34
133 | RRIRYRPPRLPRPRPRPNPNPRP | -0.735
134 | RRIRPRPPRLPRPRPRPKHHPRP | -0.228
135 | RRIRYRPPRLPRPRPRPELHPRP | -0.143
136 | RRIRWRPPRLPRPRPRPHVKPRP | -0.439
137 | RRIRVRPPRLPRPRPRPRYVPRP | -0.218
138 | RRIRERPPRLPRPRPRPCCGPRP | -0.18
139 | RRIRKRPPRLPRPRPRPHPCPRP | -0.22
140 | RRIRSRPPRLPRPRPRPHFLPRP | -0.318
141 | RRIRQRPPRLPRPRPRPDKKPRP | -0.0704
142 | RRIRLRPPRLPRPRPRPLFHPRP | -0.233
143 | RRIRDRPPRLPRPRPRPACVPRP | 0.337
144 | RRIRTRPPRLPRPRPRPAGGPRP | 0.304
145 | RRIRTRPPRLPRPRPRPWPQPRP | 0.323
146 | RRIRFRPPRLPRPRPRPKKGPRP | 0.106
147 | RRIRSRPPRLPRPRPRPTEMPRP | 0.233
148 | RRIRARPPRLPRPRPRPHMPPRP | -0.419
149 | RRIRIRPPRLPRPRPRPGTEPRP | -0.0203
150 | RRIRHRPPRLPRPRPRPYYYPRP | -1.31
